US5670637

Columns and labels:
[1] = target: T1, T4 DNA polymerase (gp43) (Bacteriophage T4) (UniProt P04415); experiment: FP; settings: filter binding; 200 mM KOAc, 50 mM Tris-HCl pH 7.7, 37 C
T1 sequence: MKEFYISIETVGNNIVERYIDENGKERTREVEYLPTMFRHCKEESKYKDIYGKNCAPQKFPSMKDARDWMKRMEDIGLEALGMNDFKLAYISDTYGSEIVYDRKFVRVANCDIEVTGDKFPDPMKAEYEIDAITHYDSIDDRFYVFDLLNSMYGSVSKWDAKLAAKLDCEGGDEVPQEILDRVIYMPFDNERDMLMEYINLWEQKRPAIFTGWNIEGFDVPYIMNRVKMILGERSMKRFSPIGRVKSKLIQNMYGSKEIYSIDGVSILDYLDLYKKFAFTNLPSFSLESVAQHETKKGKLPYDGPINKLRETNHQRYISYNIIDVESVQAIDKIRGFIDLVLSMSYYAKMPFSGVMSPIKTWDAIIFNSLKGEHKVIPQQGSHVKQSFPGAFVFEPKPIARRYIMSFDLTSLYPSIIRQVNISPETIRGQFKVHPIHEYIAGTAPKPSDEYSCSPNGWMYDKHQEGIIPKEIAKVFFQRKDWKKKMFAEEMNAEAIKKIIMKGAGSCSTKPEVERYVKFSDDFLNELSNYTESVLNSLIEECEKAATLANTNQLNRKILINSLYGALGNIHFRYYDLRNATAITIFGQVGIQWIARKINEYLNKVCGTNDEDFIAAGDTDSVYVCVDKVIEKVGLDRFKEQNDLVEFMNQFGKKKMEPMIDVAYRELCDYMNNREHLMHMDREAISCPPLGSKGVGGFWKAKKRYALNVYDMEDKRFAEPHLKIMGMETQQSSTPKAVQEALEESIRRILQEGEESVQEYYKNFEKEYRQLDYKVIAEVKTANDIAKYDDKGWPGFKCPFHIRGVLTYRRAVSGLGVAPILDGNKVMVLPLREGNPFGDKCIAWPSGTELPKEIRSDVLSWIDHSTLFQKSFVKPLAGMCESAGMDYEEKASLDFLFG

[2] = target: human tissue plasminogen activator (htPA) (Homo sapiens) (UniProt P00750); experiment: filter; settings: 150 mM NaAc, 50 mM Tris-acetate pH 7.5
Chain of human tissue plasminogen activator (htPA) (Homo sapiens) (P00750 36-562): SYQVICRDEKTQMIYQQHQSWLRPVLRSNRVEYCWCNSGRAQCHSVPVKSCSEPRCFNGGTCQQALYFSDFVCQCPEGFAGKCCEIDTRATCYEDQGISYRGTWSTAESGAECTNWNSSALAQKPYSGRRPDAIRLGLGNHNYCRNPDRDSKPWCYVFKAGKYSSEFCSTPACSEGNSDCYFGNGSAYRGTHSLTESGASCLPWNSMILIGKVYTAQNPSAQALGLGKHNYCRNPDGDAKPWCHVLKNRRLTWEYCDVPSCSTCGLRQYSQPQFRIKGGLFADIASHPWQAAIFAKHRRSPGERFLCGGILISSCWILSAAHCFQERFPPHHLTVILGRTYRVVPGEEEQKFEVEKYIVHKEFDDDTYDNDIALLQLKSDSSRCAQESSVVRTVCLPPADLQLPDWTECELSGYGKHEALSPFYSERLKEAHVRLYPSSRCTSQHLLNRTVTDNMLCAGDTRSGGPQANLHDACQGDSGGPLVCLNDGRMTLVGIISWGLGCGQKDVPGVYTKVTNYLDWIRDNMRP

[3] = target: T1, T4 DNA polymerase (gp43) (Bacteriophage T4); experiment: filter; settings: random loop population, 50-fold lower affinity
[4] = target: HIV-1 reverse transcriptase p66/p51 heterodimer (Human immunodeficiency virus 1) (UniProt P04585+P04585); experiment: filter; settings: half-maximal binding; 200 mM KOAc, 50 mM Tris-HCl pH 7.7, 10 mM DTT

“AUAUUCCUUAGUUUAUAGCCCNNNNNNNNAGGCUCUUGAUUG [gp43 RNA wild-type loop AAUAACUC]” showed a Kd [1] of 5 nM.

“GGGAGCUCAGAAUAAACGCUCAANNNNNNNNNNNNNNNNNNNNNNNNNNNNNNUUCGACAUGAGGCCCGGAUCCGGC [30N candidate pool]” was tested, and the Kd [2] was 70 nM.

“AUAUUCCUUAGUUUAUAGCCCNNNNNNNNAGGCUCUUGAUUG [gene 43 operator RNA random 8N loop pool]” gave a Kd [3] of 250 nM.

For “GGGAGCAUCAGACUUUUAAUCUGACAAUCAAGNNNNNNNNNNNNNNNNNNNNNNNNNNNNNNNNAUCUAUGAAAGAAUUUUAUAUCUCUAUUGAAAC”, the K half [4] was 700 nM.
